Common to all, as to settings: tags: bacterially expressed, purified as Markovtsov et al. 2000
Data set [1] deals with T1, hnRNP H (recombinant) (UniProt P31943 P31943:1-449).
T1 sequence: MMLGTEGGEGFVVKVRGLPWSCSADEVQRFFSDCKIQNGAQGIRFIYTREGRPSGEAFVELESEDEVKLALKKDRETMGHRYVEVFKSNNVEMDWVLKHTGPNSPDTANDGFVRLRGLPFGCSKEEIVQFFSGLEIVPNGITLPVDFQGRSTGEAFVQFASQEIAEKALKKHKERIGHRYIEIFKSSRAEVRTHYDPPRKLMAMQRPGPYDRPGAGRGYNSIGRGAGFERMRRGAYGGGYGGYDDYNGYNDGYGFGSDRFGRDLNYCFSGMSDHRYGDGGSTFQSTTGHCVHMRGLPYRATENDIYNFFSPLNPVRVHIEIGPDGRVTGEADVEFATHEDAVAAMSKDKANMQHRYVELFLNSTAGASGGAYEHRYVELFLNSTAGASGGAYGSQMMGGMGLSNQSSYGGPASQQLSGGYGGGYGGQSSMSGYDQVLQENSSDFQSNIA
The data set is described as follows: EMSA; much more shifted than CUG46; 50 kDa UV crosslink but no 100 kDa dimer without extract. The text has this: (§1) Based on previous data FIGS. 1B, 1C, 2A and 2B) we speculated that the binding of hnRNP H to CUG repeats is proportional to the length of the repeats. The recombinant form of hnRNP H was indubated with different length CUG repeats and complexes resolved in a native gel (FIG. 4A). No binding to the CUG 5 RNA was observed (Lanes 1 and 3). When the CUG 46 RNA was used in this assay, only a small fraction of the protein was gel shifted (marked as * in lane 6). In contrast, the CUG85 RNA was much more gel shifted (marked as * in lane 9). […] Combined all hnRNP H binds to CUG repeats in a proportional way depends on the length of the (CUG) repeats.
On the technique in general: A gel shift assay detects complexes by their altered migration in electrophoresis.

Data set [2] concerns the target T1, hnRNP H (recombinant). The data set is described as follows: EMSA; 10 ng protein; binding abolished by branch site mutation.
Excerpt: as §1
The different RNAs used in these assays have CUG repeats as well as a splicing acceptor site derived from a downstream of the DMPK gene (Gourdon, 1997). To understand the role of this 3′ branch site in the binding reaction, a mutant CUG85 clone containing a mutant form of the branch site was created (marked as CUG85′, FIG. 1A).

The target in data set [3] is T1, hnRNP H (recombinant). Description: EMSA; native gel, lane 3.
Excerpt: as §1

3 molecules from patent US20070054259, “Modulation of hnRNP H and treatment of DM1” (City of Hope, published 2007) can be followed below.

B1: (CUG)85 DMPK RNA (ssRNA)
RNA: CUGCUGCUGCUGCUGCUGCUGCUGCUGCUGCUGCUGCUGCUGCUGCUGCUGCUGCUGCUGCUGCUGCUGCUGCUGCUGCUGCUGCUGCUGCUGCUGCUGCUGCUGCUGCUGCUGCUGCUGCUGCUGCUGCUGCUGCUGCUGCUGCUGCUGCUGCUGCUGCUGCUGCUGCUGCUGCUGCUGCUGCUGCUGCUGCUGCUGCUGCUGCUGCUGCUGCUGCUGCUGCUGCUGCUGCUGCUGCUGCUGCUGCUGCUGCUGGGGGGAUCACAGACCA
Consider B1, for which the binding result in data set [1] was “binds”.

B2: (CUG)85' DMPK RNA, mutated 3' branch site (ssRNA)
RNA: CUGCUGCUGCUGCUGCUGCUGCUGCUGCUGCUGCUGCUGCUGCUGCUGCUGCUGCUGCUGCUGCUGCUGCUGCUGCUGCUGCUGCUGCUGCUGCUGCUGCUGCUGCUGCUGCUGCUGCUGCUGCUGCUGCUGCUGCUGCUGCUGCUGCUGCUGCUGCUGCUGCUGCUGCUGCUGCUGCUGCUGCUGCUGCUGCUGCUGCUGCUGCUGCUGCUGCUGCUGCUGCUGCUGCUGCUGCUGCUGCUGCUGCUGCUGCUGGGGGGAUCAGUGACCA
With B2, the binding result in data set [2] was “no binding”. In the case of CUGCUGCUGCUGCUGGGGGGAUCACAGACCA (ssRNA) [(CUG)5 DMPK RNA], in data set [3], the binding result was “no binding”.
